Variants at the floor of the assay were thinned out.
How the values were obtained:
biotinyl-Phe-oxazolone = experiment: self-aminoacylation, catalytic enhancement (BFO) (fold over background); higher = more active; k-Seq, kA / k0A0; sequences stand for … in GGGAAUGGAUCCACAUCUACGAAUUC…UUCACUGCAGACUUGACGAAGCUG
Summary of the method: (§1)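 Catalytic enhancement equals the median kA over the uncatalyzed rate, the latter read from the low-activity peak of a bimodal Gaussian fit. Values of kA came from fitting each sequence's fraction reacted to a pseudo-first-order model, with 1000 bootstraps. Reacted RNA was captured with streptavidin and quantified by triplicate qPCR and Illumina sequencing after 90 minutes at room temperature with 2–1250 μM biotinyl-aminoacyl-oxazolone and 0.43 μM mutagenized RNA pools bearing a 21-nt variable region.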

biotinyl-Ile-oxazolone = experiment: self-aminoacylation, catalytic enhancement (BIO) (fold over background); higher = more active; k-Seq, kA / k0A0; sequences stand for … in GGGAAUGGAUCCACAUCUACGAAUUC…UUCACUGCAGACUUGACGAAGCUG
Summary of the method: as §1

biotinyl-Met-oxazolone = experiment: self-aminoacylation, catalytic enhancement (BMO) (fold over background); higher = more active; k-Seq, kA / k0A0; sequences stand for … in GGGAAUGGAUCCACAUCUACGAAUUC…UUCACUGCAGACUUGACGAAGCUG
Summary of the method: as §1

biotinyl-Val-oxazolone = experiment: self-aminoacylation, catalytic enhancement (BVO) (fold over background); higher = more active; k-Seq, kA / k0A0; sequences stand for … in GGGAAUGGAUCCACAUCUACGAAUUC…UUCACUGCAGACUUGACGAAGCUG
Summary of the method: as §1

biotinyl-Leu-oxazolone = experiment: self-aminoacylation, catalytic enhancement (BLO) (fold over background); higher = more active; k-Seq, kA / k0A0; sequences stand for … in GGGAAUGGAUCCACAUCUACGAAUUC…UUCACUGCAGACUUGACGAAGCUG
Summary of the method: as §1

biotinyl-Trp-oxazolone = experiment: self-aminoacylation, catalytic enhancement (BWO) (fold over background); higher = more active; k-Seq, kA / k0A0; sequences stand for … in GGGAAUGGAUCCACAUCUACGAAUUC…UUCACUGCAGACUUGACGAAGCUG
Summary of the method: as §1

Sequence	self-aminoacylation (biotinyl-Phe-oxazolone)	self-aminoacylation (biotinyl-Ile-oxazolone)	self-aminoacylation (biotinyl-Met-oxazolone)	self-aminoacylation (biotinyl-Val-oxazolone)	self-aminoacylation (biotinyl-Leu-oxazolone)	self-aminoacylation (biotinyl-Trp-oxazolone)
AUUCACCUAUGCCAUCGGGUG [Fam2.2 aminoacylation ribozyme variant]	18.9	1.5	2.85	1.98	3.21	3.42
AUUCACCUAUGGCAUCGGGUG [Fam2.2 aminoacylation ribozyme variant]	11.9	1.96	2.41	1.94	2.84	2.25
AUUCACCUAUGUCAACGGGUG [Fam2.2 aminoacylation ribozyme variant]	16.8	1.83	2.83	2.01	3.35	2.52
AUUCACCUAUGUCACCGGGUG [Fam2.2 aminoacylation ribozyme variant]	19	2.34	3.22	2.27	4.89	3.43
AUUCACCUAUGUCAGCGGGUG [Fam2.2 aminoacylation ribozyme variant]	28.7	2.87	3.6	2.33	4.78	3.73
AUUCACCUAUGUCAUCGAGUG [Fam2.2 aminoacylation ribozyme variant]	17.2	3.35	4.64	2.98	5.42	4.95
AUUCACCUAUGUCAUCGGCUG [Fam2.2 aminoacylation ribozyme variant]	0.644	1.38	1.21	1.3	1.26	0.681
AUUCACCUAUGUCAUCGGGUU [Fam2.2 aminoacylation ribozyme variant]	0.724	1.35	1.48	1.61	1.86	1.75
AUUCACCUAUGUCCUCGGGUG [Fam2.2 aminoacylation ribozyme variant]	21.6	2.17	3.04	2.04	4.03	3.42
AUUCACCUAUGUCGUCGGGUG [Fam2.2 aminoacylation ribozyme variant]	6.21	1.19	1.28	1.15	1.44	1.3
AUUCACCUAUGUGAUCGGGUG [Fam2.2 aminoacylation ribozyme variant]	15.9	1.69	2.14	1.99	2.74	2.25
AUUCACCUCCGUCAUCGGGUG [Fam2.2 aminoacylation ribozyme variant]	70.3	5.62	8.59	4.91	10.8	8.32
AUUCACCUCGGUCAACGGGUG [Fam2.2 aminoacylation ribozyme variant]	27.8	2.44	3.98	2.82	5.39	3.36
AUUCACCUCGGUCAUAGGGUG [Fam2.2 aminoacylation ribozyme variant]	5.66	1.11	1.41	1.19	1.76	1.43
AUUCACCUCGGUCAUCCGGUG [Fam2.2 aminoacylation ribozyme variant]	78.8	6.84	12.2	7.28	14	11.1
AUUCACCUCGGUCAUCGGGUA [Fam2.2 aminoacylation ribozyme variant]	17	2.96	3.24	3.25	2.87	3.95
AUUCACCUGAGUCAUCGGGUG [Fam2.2 aminoacylation ribozyme variant]	35.9	5.26	13	5.03	15	9.59
AUUCACCUGCGUCAUCGGGUG [Fam2.2 aminoacylation ribozyme variant]	49.4	5.17	7.79	5.41	10.6	7.09
AUUCACCUGGGUCAUCAGGUG [Fam2.2 aminoacylation ribozyme variant]	6.12	1.52	1.48	1.92	1.67	1.36
AUUCACCUGGGUCAUCGCGUG [Fam2.2 aminoacylation ribozyme variant]	110	8.24	14.3	9.89	17.1	14.3
AUUCACCUGGGUCAUGGGGUG [Fam2.2 aminoacylation ribozyme variant]	51.6	4.05	6.65	4.9	9.15	6.16
AUUCACCUGGGUCCUCGGGUG [Fam2.2 aminoacylation ribozyme variant]	39	4.33	6.49	4.67	7.74	6.22
AUUCACCUGGGUCGUCGGGUG [Fam2.2 aminoacylation ribozyme variant]	6.66	1.93	2.46	2.48	2.3	2.11
AUUCACCUGGUUCAUCGGGUG [Fam2.2 aminoacylation ribozyme variant]	15.2	2.42	3.08	3.1	3.19	3.62
AUUCACCUUGCUCAUCGGGUG [Fam2.2 aminoacylation ribozyme variant]	10.7	1.84	1.94	2	2.63	2.01
AUUCACCUUGGUCAACGGGUG [Fam2.2 aminoacylation ribozyme variant]	20.3	2.22	3.19	2.2	4.24	3.03

Sequence	self-aminoacylation (biotinyl-Phe-oxazolone)	self-aminoacylation (biotinyl-Ile-oxazolone)	self-aminoacylation (biotinyl-Met-oxazolone)	self-aminoacylation (biotinyl-Val-oxazolone)	self-aminoacylation (biotinyl-Leu-oxazolone)	self-aminoacylation (biotinyl-Trp-oxazolone)
AUUCACCUUGGUCAGCGGGUG [Fam2.2 aminoacylation ribozyme variant]	25.6	2.71	3.99	3.16	5.32	3.71
AUUCACCUUGGUCAUCGGGAG [Fam2.2 aminoacylation ribozyme variant]	0.73	1.07	1.05	1.05	1.09	1.27
AUUCACCUUGGUCAUCGGGUC [Fam2.2 aminoacylation ribozyme variant]	4.87	1.2	1.32	1.58	1.15	1.28
AUUCACCUUGGUCGUCGGGUG [Fam2.2 aminoacylation ribozyme variant]	11.3	1.9	1.86	1.81	2.18	2.01
AUUCACCUUGGUUAUCGGGUG [Fam2.2 aminoacylation ribozyme variant]	35.2	3.26	5.13	3.85	5.92	5.27
AUUCACCUUGUUCAUCGGGUG [Fam2.2 aminoacylation ribozyme variant]	15.2	2.01	2.72	2.42	3.38	2.91
AUUCACCUUUGUCAUCGGGUG [Fam2.2 aminoacylation ribozyme variant]	25.4	3.14	4.43	3.11	5.41	4.62
AUUCACGUAGGCCAUCGGGUG [Fam2.2 aminoacylation ribozyme variant]	48.1	3.71	4.29	5.3	4.12	5.37
AUUCACGUAGGUCAACGGGUG [Fam2.2 aminoacylation ribozyme variant]	21.1	2.77	3.95	3.15	4.96	4.47
AUUCACGUAGGUCAUCCGGUG [Fam2.2 aminoacylation ribozyme variant]	120	7.72	13.2	8.57	17	12.1
AUUCACGUAGGUCAUCGGCUG [Fam2.2 aminoacylation ribozyme variant]	6.6	2.35	2.35	3.36	2.91	3.17
AUUCACGUAGGUCAUGGGGUG [Fam2.2 aminoacylation ribozyme variant]	24.6	3.34	3.45	4.23	5.48	4.5
AUUCACGUAGGUCUUCGGGUG [Fam2.2 aminoacylation ribozyme variant]	40.1	3.86	4.21	5.24	4.82	4.88
AUUCACUUACGUCAUCGGGUG [Fam2.2 aminoacylation ribozyme variant]	38.4	3.35	5.61	3.36	7.03	5.63
AUUCACUUAGGACAUCGGGUG [Fam2.2 aminoacylation ribozyme variant]	14.1	2.33	3.21	2.33	3.44	2.78
AUUCACUUAGGUCAUCGGGAG [Fam2.2 aminoacylation ribozyme variant]	0.746	1.02	1.1	1.11	1.22	0.745
AUUCACUUAGGUCAUCGGGCG [Fam2.2 aminoacylation ribozyme variant]	4.38	2.55	3.18	3.17	4.02	3.91
AUUCACUUAGGUCAUCGGGUG [Fam2.2 aminoacylation ribozyme variant]	48.3	3.87	6.36	3.86	8.1	6.28
AUUCACUUAGGUCUUCGGGUG [Fam2.2 aminoacylation ribozyme variant]	22.7	2.96	3.58	2.71	3.95	4.2
AUUCACUUAGGUUAUCGGGUG [Fam2.2 aminoacylation ribozyme variant]	18.6	2.37	3.33	2.5	4.03	3.68
AUUCAGCCAGGUCAUCGGGUG [Fam2.2 aminoacylation ribozyme variant]	59.7	5.25	8.99	5.4	10.7	9.91
AUUCAGCUAAGUCAUCGGGUG [Fam2.2 aminoacylation ribozyme variant]	24.6	2.96	3	2.96	3.99	2.81
AUUCAGCUAGGGCAUCGGGUG [Fam2.2 aminoacylation ribozyme variant]	64.3	4.72	6.69	4.65	7.92	6.75
AUUCAGCUAGGUCAUCAGGUG [Fam2.2 aminoacylation ribozyme variant]	8.1	1.63	2.38	2.04	2.39	2.09
AUUCAGCUAGGUCAUCGGGUG [Fam2.2 aminoacylation ribozyme variant]	35	3.7	4.92	4.2	5.83	5.34
